Measurements: patent US20050032064A1 (GENFIT, published 2005)

Target: the molecule itself
Test: electrophoretic mobility shift assay, in vitro translated protein on labeled Rev-DR2 oligonucleotide
Procedure: The electrophoretic gel shift studies were carried out by using the indicated end-labeled oligonucleotides, in the presence of the murine PPAR GAMMA receptor, murine RXR ALPHA receptor, human REV-ERB ALPHA receptor produced by reticulocyte lysate, or non-programmed lysates (lysate). Binding competition experiments were performed by adding a 0, 10 or 100-fold excess of unlabeled Rev-DR2 oligonucleotide.
The pSG5-mPPAR-gamma, pSG5-mRXR-alpha and pSG5-hRev-erb alpha plasmids were transcribed in vitro with T7 polymerase and translated with the rabbit reticulocyte lysate system (Promega, Madison, Wis., USA). Gel shift experiments with REV-ERB ALPHA, PPAR GAMMA and/or RXR ALPHA proteins were carried out as previously described (Gervois, P. et al., Molecular Endocrinology 1999, 13(3): 400-409; Vu-Dac, N. et al., J. Biol. Chem. 1994, 269(49): 31012-31018). For the competition experiments, increasing quantities of the indicated unlabeled probe were added immediately before adding the labeled oligonucleotide. The complexes were resolved in 5% polyacrylamide gels using […] buffer (90 mM borate, 2.5 mM EDTA, pH 8.3) at room temperature. Gels were dried and exposed overnight at −70° C. on Rayon-X film (XOMAT-AR, Eastman Kodak, Rochester, N.Y., USA).
Lastly, binding of the PPAR GAMMA receptor to the Rev-DR2 site was studied. […]

B1: human REV-ERB ALPHA receptor (receptor)
chain: MTTLDSNNNTGGVITYIGSSGSSPSRTSPESLYSDNSNGSFQSLTQGCPTYFPPSPTGSLTQDPARSFGSIPPSLSDDGSPSSSSSSSSSSSSFYNGSPPGSLQVAMEDSSRVSPSKSTSNITKLNGMVLLCKVCGDVASGFHYGVHACEGCKGFFRRSIQQNIQYKRCLKNENCSIVRINRNRCQQCRFKKCLSVGMSRDAVRFGRIPKREKQRMLAEMQSAMNLANNQLSSQCPLETSPTQHPTPGPMGPSPPPAPVPSPLVGFSQFPQQLTPPRSPSPEPTVEDVISQVARAHREIFTYAHDKLGSSPGNFNANHASGSPPATTPHRWENQGCPPAPNDNNTLAAQRHNEALNGLRQAPSSYPPTWPPGPAHHSCHQSNSNGHRLCPTHVYAAPEGKAPANSPRQGNSKNVLLACPMNMYPHGRSGRTVQEIWEDFSMSFTPAVREVVEFAKHIPGFRDLSQHDQVTLLKAGTFEVLMVRFASLFNVKDQTVMFLSRTTYSLQELGAMGMGDLLSAMFDFSEKLNSLALTEEELGLFTAVVLVSADRSGMENSASVEQLQETLLRALRALVLKNRPLETSRFTKLLLKLPDLRTLNNMHSEKLLSFRVDAQ
notes: also called hRev-erb alpha
binding result: binds
